Measured values as given in IntAct's records for PubMed 11134024.

B1: Numb-related protein 1 (Caenorhabditis elegans), Q9XTY6 (parent)
chain: MSASQGNVFTRGLSRISRRKKKTKSIQNSLVSEQQPSFDAAIVPMPIPNDKSSIFSKGMDRLRRSLRLPKKRRDRSHDRHLSPDVTGGSKTEQWQPDEGAVRTGTCCFNVKYLGSVEVYESRGMQVCEGALKSLKASRRKPVKAVLYVSGDGLRVVDQGNSRGLLVDQTIEKVSFCAPDRQTDKGFAYICRDGASRRWMCHGFLATKETGERLSHAVGCAFSICLEKKKRRDEETAQVNVQSAQESTSSTPPKDIFHPNWEDNTSEGTSTQNPSNSRSNLAYQSFRKHVSIEDRYLDPQSVIINEVPASNHMDEIRRISKPRPTGNPALFLRQGSLRAPPDMPSSSDQFKRNMSLRTVSNNPTERSPEKKSFGTQLYNEPIYEGDEDPLGLGITPPVVTKTSGSLSNNGLDGINLNWKSIPAPVHQMQQHNANGDFVAAWPQNTIEKPTVGPLDKLQKQFEDIKLISISSGENTPTTRSKADEWLDDVLRVSMSMSPTSPSSDPPSTSSYSVLPKSGPPPAHAPPPLPVRQAVSNGSPSIYQQQLQQANSTRNSPAGINWNSSPNPMKISQPPAKPVDPFDVQWSRLAVNNTH
partner: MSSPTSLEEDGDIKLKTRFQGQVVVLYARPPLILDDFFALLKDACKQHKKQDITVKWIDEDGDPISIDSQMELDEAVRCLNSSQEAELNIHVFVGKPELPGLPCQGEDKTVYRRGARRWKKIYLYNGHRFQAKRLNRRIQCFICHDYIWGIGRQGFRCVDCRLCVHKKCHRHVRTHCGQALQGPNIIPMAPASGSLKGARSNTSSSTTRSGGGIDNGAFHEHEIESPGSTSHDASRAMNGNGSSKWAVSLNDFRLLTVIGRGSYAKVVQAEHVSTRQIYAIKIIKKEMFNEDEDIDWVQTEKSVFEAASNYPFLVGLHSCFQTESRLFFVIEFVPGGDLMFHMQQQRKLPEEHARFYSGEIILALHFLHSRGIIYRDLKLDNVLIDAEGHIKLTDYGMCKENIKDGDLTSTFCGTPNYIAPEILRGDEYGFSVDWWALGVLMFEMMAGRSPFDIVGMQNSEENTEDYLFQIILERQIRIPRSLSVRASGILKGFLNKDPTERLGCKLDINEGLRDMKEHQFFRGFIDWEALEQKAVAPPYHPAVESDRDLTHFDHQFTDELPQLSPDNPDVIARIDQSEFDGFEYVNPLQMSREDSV

Variants of: B1
Conditions: with kpc3_caeel pkc-3, Q19266

effect of a mutation on the interaction | Variant
decreasing interaction | F221L

Variants of: B1
Conditions: with kpc3_caeel pkc-3, Q19266
Remark: another data set of the same source

effect of a mutation on the interaction | Variant
decreasing interaction | F221L
decreasing interaction | F175L
